# Laboratory results taken from patent US20080286228A1 (published 2008).
# Non-standard residues stand in square brackets, D forms with d. No end group written: not given here.
# T1: C5a receptor expressed on the surface of human PMNs (human, UniProt P21730 1-350)
# T1 sequence (looked up): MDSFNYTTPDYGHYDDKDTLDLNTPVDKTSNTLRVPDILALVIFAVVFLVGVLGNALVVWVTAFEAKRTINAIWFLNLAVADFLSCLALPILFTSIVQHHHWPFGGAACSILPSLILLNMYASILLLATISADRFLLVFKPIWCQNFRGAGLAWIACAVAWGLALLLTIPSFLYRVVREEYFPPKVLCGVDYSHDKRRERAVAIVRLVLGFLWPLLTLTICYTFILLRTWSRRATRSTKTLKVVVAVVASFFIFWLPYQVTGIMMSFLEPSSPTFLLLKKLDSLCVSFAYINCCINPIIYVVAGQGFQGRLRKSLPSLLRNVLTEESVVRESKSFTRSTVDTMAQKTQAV
# B1: IPQSLDSWWTSLYSFKPMPLaR (peptide)
# peptide: IPQSLDSWWTSLYSFKPMPL[dA]R
# notes: synthetic peptide
# B2: YSFKPMPLa[…] (peptide)
# peptide: YSFKPMPL[dA]RRRIPQSLDSWWTSL
# notes: synthetic peptide
# B3: IPQSLDSWWTSLRVRRYSFKPMPLaR (peptide)
# peptide: IPQSLDSWWTSLRVRRYSFKPMPL[dA]R
# notes: synthetic peptide; also called RVRR-containing C5a-active construct
# B4: IPQSLDSWWTSLRRYSFKPMPLaRG (peptide)
# peptide: IPQSLDSWWTSLRRYSFKPMPL[dA]RG
# notes: synthetic peptide
# B5: IPQSLDSWWTSLRRYSFKPMPLaR (peptide)
# peptide: IPQSLDSWWTSLRRYSFKPMPL[dA]R
# notes: synthetic peptide; also called double-Arg-linked C5a-active construct
# B6: natural C5a (ligand, UniProt P01031 678-751, looked up)
# chain: TLQKKIEEIAAKYKHSVVKKCCYDGACVNNDETCEQRAARISLGPRCIKAFTECCVVASQLRANISHKDMQLGR
# notes: C5a is a fragment of it
# B7: C5a C-terminal decapeptide agonist analog YSFKPMPLaR (peptide)
# peptide: YSFKPMPL[dA]R
# notes: synthetic peptide; also called C5a agonist
# Biological target: T1, C5a receptor expressed on the surface …
# Test: cell-based or functional assay
Binder,"MPO release from human PMNs, EC50 [µM]","MPO release from human PMNs, pD2"
B1,1.58,5.8 -log EC50 (M)
B2,> 1000,> 3 -log EC50 (M)
B3,2.15,5.61 -log EC50 (M)
B4,2.56,5.59 -log EC50 (M)
B5,0.54,6.27 -log EC50 (M)
B6,0.003,8.5 -log EC50 (M)

# Biological target: T1, C5a receptor expressed on the surface …
# Test: competition with 125I-C5a on intact human PMNs
# Experimental: Statistical analysis of the values obtained from pharmacologic assays was performed using one-way analysis of variance (ANOVA).
Binder,IC50 [µM],pD2 (-log IC50 (M))
B1,3.69,5.43 -log IC50 (M)
B2,465,3.33 -log IC50 (M)
B3,0.529,6.28 -log IC50 (M)
B4,17,4.77 -log IC50 (M)
B5,0.416,6.38 -log IC50 (M)
B6,0.0004,9.43 -log IC50 (M)
B7,,5.63 -log IC50 (M)

# Biological target: T1, C5a receptor expressed on the surface …
# Test: cell-based or functional assay
# Remark: another data set of the same source
Binder,"smooth muscle contraction of human umbilical artery, EC50 [µM]","smooth muscle contraction of human umbilical artery, pD2"
B1,0.21,6.68 -log EC50 (M)
B2,39.4,4.41 -log EC50 (M)
B3,0.18,6.67 -log EC50 (M)
B4,6.78,5.17 -log EC50 (M)
B5,0.161,6.79 -log EC50 (M)
B6,0.002,8.77 -log EC50 (M)
B7,0.01,6.99 -log EC50 (M)
